Test results taken from patent US11268120B2, “Identification of transglutaminase substrates and uses therefor” (Roche Sequencing Solutions, Inc., priority 2014, dated 2022).
One block for each molecule: values may come before it. No end group written: not given here. *: point of attachment. Cbz = O=C(OCc1ccccc1)*

Legend:
MTG [1] = target: T1, MTG (Streptomyces mobaraensis, UniProt P81453); experiment: GLDH-coupled continuous assay for MTG activity in solution, Lys-containing substrate peptides; type: biochemical
T1 construct: purchased Zedira GmbH
T1 sequence (P81453 77-407): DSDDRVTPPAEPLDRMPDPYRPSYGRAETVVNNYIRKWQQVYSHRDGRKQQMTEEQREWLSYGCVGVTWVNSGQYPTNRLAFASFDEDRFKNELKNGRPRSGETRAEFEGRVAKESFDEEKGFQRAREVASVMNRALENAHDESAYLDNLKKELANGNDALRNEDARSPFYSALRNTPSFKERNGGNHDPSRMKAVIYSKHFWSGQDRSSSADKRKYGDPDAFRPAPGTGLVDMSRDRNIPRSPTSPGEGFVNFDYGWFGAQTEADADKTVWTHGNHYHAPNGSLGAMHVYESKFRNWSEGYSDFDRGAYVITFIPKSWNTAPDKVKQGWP
Procedure: (§1) FIG. 3 is a plot of MTG activity obtained by measuring rates of NADH oxidation at 340 nm and 37° C. using various concentrations of the di-peptide QG (1-20 mM) and the peptide […] (SEQ ID NO: 86) (0.2-5 mM) in the GLDH-coupled assay. The Michaelis-Menten equation was used to fit hyperbolic curves to the data points, giving Km and Vmax parameters and allowing calculation of turnover number (kcat) and catalytic efficiency (kcat/KM). Improved performance of array selected […] (SEQ ID NO: 86) (open squares) substrate was observed compared to standard QG-substrate (filled squares). ‘Z’ represents a carboxybenzyl protective group. […] The Michaelis-Menten equation was used to fit hyperbolic curves to the data points, giving Km and Vmax parameters as well as allowing calculation of turnover number (kcat) and catalytic efficiency (kcat/KM). Improved performance of array selected […] (SEQ ID NO: 80) (filled squares) substrate was observed as compared to a […] (SEQ ID NO: 81) substrate (filled circles). ‘Z-’ represents a carboxybenzyl protective group.
Lys-tag peptides were assayed in solution analog to the Gln-containing substrates: The assay was performed in a 96-well microtiter plate in the presence of 1.25 mM α-ketoglutarate, 100 μM Z-[…] (SEQ ID NO: 86) peptide as […], 0.2 U of glutamate dehydrogenase (GLDH), 500 μM NADH and Lys-containing substrate peptide concentrations ranging between 0 and 500 μM in 200 mM MOPS, 1 mM EDTA pH 7.2 (total volume per well 200 μl). The reaction was started by the addition of 0.1 U of MTG (Zedira GmbH) and the oxidation of NADH was continuously recorded against a blank at 340 nm for 20 min using a Biotek Synergy H4 microplate reader thermostated at 37° C. with short shaking intervals before each measurement. After a short lag phase, where the GLDH was saturated by MTG-mediated release of ammonia, linear rates of absorbance versus time, corresponding to MTG turnover, were observed, and subjected to Michaelis-Menten kinetic analysis.

MTG [2] = target: T1, MTG; experiment: GLDH-coupled continuous assay for MTG activity in solution, Gln-containing substrate peptides; type: biochemical; conditions: pH 7.2, 37° C.
Procedure: as §1
It was next determined whether peptides selected in the array assay were also preferred substrates in the solution reaction. The performance of the […] (SEQ ID NO: 26) peptide found in the array assay and the QG peptide substrate commonly used for testing MTG activity were compared. […]
The assay was performed in a 96-well microtiter plate in the presence of 10 mM α-ketoglutarate, 10 mM glycine methyl ester as acyl acceptor, 2 U of glutamate dehydrogenase (GLDH), 500 μM NADH (i.e., reduced nicotinamide adenine dinucleotide) and Gln-containing substrate peptide concentrations ranging between 0.2 and 20 mM in 200 mM MOPS (i.e., 3-(N-morpholino)propanesulfonic acid), 1 mM EDTA pH 7.2 (total volume per well 200 μl). The reaction was started by the addition of 0.1 U of MTG (Zedira GmbH) and the oxidation of NADH was continuously recorded against a blank at 340 nm for 20 min using a Biotek Synergy H4 microplate reader thermostated at 37° C. with short shaking intervals before each measurement. […]

[3] = BIACORE 3000 binding kinetics of VitDBP constructs to biotin labeled 25-OH-VitD2; conditions: 25° C.
Procedure: Experiments were carried out to determine whether the addition of an array-selected motif interferes with the ability of VitDBP to bind to its natural ligand, 25-hydroxylated vitamin D2 (25-OH-VitD2). The glutamine donor motif selected for use was […] (i.e., SEQ ID NO 86). A BIACORE SA sensor was mounted into a BIACORE 3000 instrument. The instrument was tempered at 25° C. The sensor was preconditioned as recommended by the manufacturer (GE Healthcare). The system buffer was PBS pH 8.2 with 5% DMSO and 0.05% TWEEN20. The sample buffer was the system buffer supplemented with 1 mg per ml CMD (Sigma). From a 300 nM biotin labeled 25-OH-VitD2 (25-OH-VitD2-bi) sample solution 860 RU were captured on the sensor flow cell 2 by a 2 min injection at 10 μl per minute. The sensor surface was finally saturated by 5 μM amino-PEO-biotin (Pierce). As a reference, 1 μM amino-PEO-biotin was injected into flow cell 1 for 1 min at a rate of 10 μl per minute.
The analytes wt-VitDBP-His8 and wt-VitDBP-His8-Q2 were compared for their binding behavior towards 25-OH-VitD2. The Gln-motif was later ruthenylated by an MTG catalyzed reaction as described (FIGS. 10A and 10B).
The analytes were injected in concentration series of 600 nM, 200 nM, 67 nM, 22 nM, 7.4 nM and 0 nM (buffer only). The analyte association was monitored for 3 min and the dissociation for 5 min both at 20 μl per minute (FIGS. 11 and 12).
After each injection the system was regenerated by a 100 mM HCl injection for 1 minute and 15 seconds at 20 μl per minute followed by a 2 min injection of 10 mM glycine buffer pH 1.5. The data was overlayed in a BIACORE sensorgram and kinetic data was calculated by fitting a Langmuir 1:1 binding model to the data obtained as recommended by the manufacturer using the Biaevaluation Software version 4.1.

Molecule: Z-GGGDEKPDGGGG (Cbz-GGGDEKPDGGGG) [reference compound]
MTG activity (in words) (MTG [1]; kinetic data could not be determined): extremely low activity

Molecule: Z-GGGARSKLGGGG
apparent difference in MTG catalytic efficiency compared to low-signal substrate GGGDEKPDGGGG (MTG [1]): at least 10 fold
Km (MTG [1]; Lys-peptide 0-500 μM, 100 μM Z-GGGDYALQGGGG, pH 7.2, 37° C.): 66.8 ± 20.2 µM
Vmax (MTG [1]; Lys-peptide, 0.1 U MTG, pH 7.2, 37° C.): 5.1 ± 0.5 pmol/s
kcat (MTG [1]; Lys-peptide, pH 7.2, 37° C.): 0.066 s⁻¹

Molecule: Z-GGGDYALQGGGG (Cbz-GGGDYALQGGGG)
Km (MTG [2]; Gln-peptide 0.2-20 mM, 10 mM glycine methyl ester as acyl acceptor): 970 ± 320 µM
Vmax (MTG [2]; Gln-peptide, 0.1 U MTG): 0.46 ± 0.06 nmol/s
kcat (MTG [2]; Gln-peptide): 6.0 s⁻¹

Kd ([3]; Langmuir 1:1 binding model): 95 nM
ka ([3]; Langmuir 1:1 binding model): 13800 M⁻¹ s⁻¹
kd ([3]; Langmuir 1:1 binding model): 0.00131 s⁻¹
Kd ([3]; Ligand VitD2-250H-biotin (300 nM)): 95 nM
B1: wt-VDBP-His8: wild type vitamin D binding protein with C-terminally fused 8× Histidine tag, without Q2 tag (protein, UniProt P02774 17-474, looked up)
Vitamin D-binding protein: LERGRDYEKNKVCKEFSHLGKEDFTSLSLVLYSRKFPSGTFEQVSQLVKEVVSLTEACCAEGADPDCYDTRTSALSAKSCESNSPFPVHPGTAECCTKEGLERKLCMAALKHQPQEFPTYVEPTNDEICEAFRKDPKEYANQFMWEYSTNYGQAPLSLLVSYTKSYLSMVGSCCTSASPTVCFLKERLQLKHLSLLTTLSNRVCSQYAAYGEKKSRLSNLIKLAQKVPTADLEDVLPLAEDITNILSKCCESASEDCMAKELPEHTVKLCDNLSTKNSKFEDCCQEKTAMDVFVCTYFMPAAQLPELPDVELPTNKDVCDPGNTKVMDKYTFELSRRTHLPEVFLSKVLEPTLKSLGECCDVEDSTTCFNAKGPLLKKELSSFIDKGQELCADYSENTFTEYKKKLAERLKAKLPDATPTELAKLVNKHSDFASNCCSINSPPLYCDSEIDAELKNIL
modifications: His8 tag
